Target: T1, KIF1C-SNAPf-3XFLAG, full-length KIF1C (human, UniProt O43896 1-1103, TMR via the SNAP-tag (in the TIRF assays))
T1 sequence: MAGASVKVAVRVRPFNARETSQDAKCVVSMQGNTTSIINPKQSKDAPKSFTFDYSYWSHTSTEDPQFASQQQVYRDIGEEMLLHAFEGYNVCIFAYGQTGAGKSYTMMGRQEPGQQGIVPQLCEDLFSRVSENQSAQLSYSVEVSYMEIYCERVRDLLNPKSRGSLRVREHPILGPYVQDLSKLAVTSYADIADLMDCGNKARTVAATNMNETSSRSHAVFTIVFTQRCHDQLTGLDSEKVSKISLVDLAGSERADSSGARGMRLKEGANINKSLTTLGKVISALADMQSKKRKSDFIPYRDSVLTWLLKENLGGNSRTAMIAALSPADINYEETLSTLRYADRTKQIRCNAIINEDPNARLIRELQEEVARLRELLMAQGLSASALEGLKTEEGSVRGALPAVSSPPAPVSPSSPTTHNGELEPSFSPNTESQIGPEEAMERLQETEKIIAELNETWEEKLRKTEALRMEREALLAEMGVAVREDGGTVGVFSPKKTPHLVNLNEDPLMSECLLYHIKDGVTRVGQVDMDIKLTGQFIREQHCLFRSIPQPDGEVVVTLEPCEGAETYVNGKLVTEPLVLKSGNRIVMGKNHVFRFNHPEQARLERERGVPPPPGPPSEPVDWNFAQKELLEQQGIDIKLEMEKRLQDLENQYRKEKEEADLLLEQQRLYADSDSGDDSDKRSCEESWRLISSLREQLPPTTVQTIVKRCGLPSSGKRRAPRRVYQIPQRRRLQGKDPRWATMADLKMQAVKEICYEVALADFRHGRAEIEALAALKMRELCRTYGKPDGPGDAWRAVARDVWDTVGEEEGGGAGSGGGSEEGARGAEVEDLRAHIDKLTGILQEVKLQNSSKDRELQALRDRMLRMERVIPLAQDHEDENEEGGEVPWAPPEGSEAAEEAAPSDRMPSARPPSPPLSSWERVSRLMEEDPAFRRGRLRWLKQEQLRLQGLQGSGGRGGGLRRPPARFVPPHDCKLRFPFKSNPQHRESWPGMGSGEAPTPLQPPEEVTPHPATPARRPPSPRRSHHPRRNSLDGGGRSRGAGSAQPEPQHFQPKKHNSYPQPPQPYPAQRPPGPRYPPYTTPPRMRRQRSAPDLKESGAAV
Assay: single-molecule three-colour TIRF colocalisation on microtubules

B1: Halo-HOOK3(1-718)-3XFLAG, full-length HOOK3 (natural protein)
chain: MFSVESLERAELCESLLTWIQTFNVDAPCQTVEDLTNGVVMAQVLQKIDPAYFDENWLNRIKTEVGDNWRLKISNLKKILKGILDYNHEILGQQINDFTLPDVNLIGEHSDAAELGRMLQLILGCAVNCEQKQEYIQAIMMMEESVQHVVMTAIQELMSKESPVSAGNDAYVDLDRQLKKTTEELNEALSAKEEIAQRCHELDMQVAALQEEKSSLLAENQVLMERLNQSDSIEDPNSPAGRRHLQLQTQLEQLQEETFRLEAAKDDYRIRCEELEKEISELRQQNDELTTLADEAQSLKDEIDVLRHSSDKVSKLEGQVESYKKKLEDLGDLRRQVKLLEEKNTMYMQNTVSLEEELRKANAARSQLETYKRQVVELQNRLSEESKKADKLDFEYKRLKEKVDSLQKEKDRLRTERDSLKETIEELRCVQAQEGQLTTQGLMPLGSQESSDSLAAEIVTPEIREKLIRLQHENKMLKLNQEGSDNEKIALLQSLLDDANLRKNELETENRLVNQRLLEVQSQVEELQKSLQDQGSKAEDSVLLKKKLEEHLEKLHEANNELQKKRAIIEDLEPRFNNSSLKIEELQEALRKKEEEMKQMEERYKKYLEKAKSVIRTLDPKQNQGAAPEIQALKNQLQERDRLFHSLEKEYEKTKSQREMEEKYIVSAWYNMGMTLHKKAAEDRLASTGSGQSFLARQRQATSSRRSYPGHVQPATAR
modifications: Alexa-488 via the HaloTag (in the TIRF assays)
B1: binds.

Source: paper doi:10.1101/508887 (bioRxiv, 2018)
